# Bridge positions count the residues as written; N and C are the ends. Square brackets hold non-standard residues; d marks the D form. Bip = N[C@@H](Cc1ccc(-c2ccccc2)cc1)C(=O)O; 1Nal = N[C@@H](Cc1cccc2ccccc12)C(=O)O; 2Nal = N[C@@H](Cc1ccc2ccccc2c1)C(=O)O; NMeR = CN[C@@H](CCCNC(=N)N)C(=O)O; Tic = O=C(O)[C@@H]1Cc2ccccc2CN1; β3hE = N[C@@H](CCC(=O)O)CC(=O)O; Cha = N[C@@H](CC1CCCCC1)C(=O)O; Cit = NC(=O)NCCC[C@H](N)C(=O)O; NMeK = CN[C@@H](CCCCN)C(=O)O; Pen = CC(C)(S)[C@H](N)C(=O)O; Dab = NCC[C@H](N)C(=O)O
# B1: SEQ ID NO: 159 (peptide)
# peptide: Ac-[Pen][NMeR]SDLL[Pen][2Nal][dE]-NH2
# modifications: disulfide 1-7
# SMILES: CC(=O)N[C@@H]1C(=O)N(C)[C@@H](CCCNC(=N)N)C(=O)N[C@@H](CO)C(=O)N[C@@H](CC(=O)O)C(=O)N[C@@H](CC(C)C)C(=O)N[C@@H](CC(C)C)C(=O)N[C@H](C(=O)N[C@@H](Cc2ccc3ccccc3c2)C(=O)N[C@H](CCC(=O)O)C(N)=O)C(C)(C)SSC1(C)C
# B2: SEQ ID NO: 75 (peptide)
# peptide: Ac-[Pen][NMeR]SDTL[Pen][2Nal]E-NH2
# modifications: disulfide 1-7
# SMILES: CC(=O)N[C@@H]1C(=O)N(C)[C@@H](CCCNC(=N)N)C(=O)N[C@@H](CO)C(=O)N[C@@H](CC(=O)O)C(=O)N[C@@H]([C@@H](C)O)C(=O)N[C@@H](CC(C)C)C(=O)N[C@H](C(=O)N[C@@H](Cc2ccc3ccccc3c2)C(=O)N[C@@H](CCC(=O)O)C(N)=O)C(C)(C)SSC1(C)C
# B3: SEQ ID NO: 158 (peptide)
# peptide: Ac-[Pen][NMeR]SD[Cha]L[Pen][2Nal][dE]-NH2
# modifications: disulfide 1-7
# SMILES: CC(=O)N[C@@H]1C(=O)N(C)[C@@H](CCCNC(=N)N)C(=O)N[C@@H](CO)C(=O)N[C@@H](CC(=O)O)C(=O)N[C@@H](CC2CCCCC2)C(=O)N[C@@H](CC(C)C)C(=O)N[C@H](C(=O)N[C@@H](Cc2ccc3ccccc3c2)C(=O)N[C@H](CCC(=O)O)C(N)=O)C(C)(C)SSC1(C)C
# B4: SEQ ID NO: 157 (peptide)
# peptide: Ac-[Pen][NMeR]SDFL[Pen][2Nal][dE]-NH2
# modifications: disulfide 1-7
# SMILES: CC(=O)N[C@@H]1C(=O)N(C)[C@@H](CCCNC(=N)N)C(=O)N[C@@H](CO)C(=O)N[C@@H](CC(=O)O)C(=O)N[C@@H](Cc2ccccc2)C(=O)N[C@@H](CC(C)C)C(=O)N[C@H](C(=O)N[C@@H](Cc2ccc3ccccc3c2)C(=O)N[C@H](CCC(=O)O)C(N)=O)C(C)(C)SSC1(C)C
# Molecular target: human α4β7 integrin on cells (human) (UniProt P13612)
# Test: RPMI8866 adhesion to MAdCAM-1
row,IC50 [µM],Binder
1,> 0.1,Ac-[Pen][NMeR]SDTL[Pen][1Nal][dR][dK]-NH2 (disulfide 1-7 (inferred); also: homodimer via DIG) [SEQ ID NO: 114]
2,< 0.01,"Ac-[Pen][NMeR]SDTL[Pen]WE[Dab]-NH2 (disulfide 1-7; also: dimer (monomer)2-DIG, DIG attachment place not given here) [SEQ ID NO: 97]"
3,> 0.1,"Ac-[Pen][NMeR]SDTL[Pen]W[Tic][dK]-NH2 (disulfide 1-7; also: dimer via DIG, attachment site not given here) [SEQ ID NO: 109]"
4,> 1,Ac-[Pen][NMeR]SDTL[Pen][2Nal][dR][dK]-NH2 (disulfide 1-7 (inferred); also: homodimer via DIG) [SEQ ID NO: 120]
5,> 0.01,"Ac-[Pen][NMeR]SDTL[Pen]W[Cit][dK]-NH2 (disulfide 1-7; also: dimer (monomer)2-DIG, DIG attachment place not given here) [SEQ ID NO: 84]"
6,> 0.1,Ac-[Pen][NMeR]SDTL[Pen][1Nal][Tic][dK]-NH2 (disulfide 1-7 (inferred); also: homodimer via DIG) [SEQ ID NO: 115]
7,> 0.01,"Ac-[Pen][NMeR]SDTL[Pen][Bip][dE][dK]-NH2 (disulfide 1-7; also: dimer via DIG, attachment site not given here) [SEQ ID NO: 108]"
8,> 0.5,Ac-[Pen][NMeR]SDTL[Pen][2Nal][dL][dK]-NH2 (disulfide 1-7 (inferred); also: homodimer via DIG) [SEQ ID NO: 119]
9,> 0.1,Ac-[Pen][NMeR]SDTL[Pen][2Nal][Tic][dK]-NH2 (disulfide 1-7 (inferred); also: homodimer via DIG) [SEQ ID NO: 121]
10,> 0.05,Ac-[Pen][NMeR]SDTL[Pen][1Nal][dT][dK]-NH2 (disulfide 1-7 (inferred); also: homodimer via DIG) [SEQ ID NO: 116]
11,> 0.5,Ac-[Pen][NMeR]SDTL[Pen][1Nal][dL][dK]-NH2 (disulfide 1-7 (inferred); also: homodimer via DIG) [SEQ ID NO: 113]
12,> 1,B1
13,> 0.05,"Ac-[Pen][NMeR]SDTL[Pen][Tic][dE][dK]-NH2 (disulfide 1-7; also: dimer (monomer)2-DIG, DIG attachment place not given here) [SEQ ID NO: 80]"
14,> 0.01,Ac-[Pen][NMeR]SDTL[Pen][2Nal][dT][dK]-NH2 (disulfide 1-7 (inferred); also: dimer via DIG linker) [SEQ ID NO: 140]
15,> 0.05,B2
16,> 0.1,Ac-[Pen][NMeR]SDTL[Pen][2Nal][dF][dK]-NH2 (disulfide 1-7 (inferred); also: homodimer via DIG) [SEQ ID NO: 117]
17,> 1,B3
18,> 0.025,Ac-[Pen][NMeR]SDTL[Pen][2Nal][dH][dK]-NH2 (disulfide 1-7 (inferred); also: homodimer via DIG) [SEQ ID NO: 118]
19,> 0.1,Ac-[Pen][NMeR]SDVL[Pen][2Nal][dE]-NH2 (disulfide 1-7 (inferred)) [SEQ ID NO: 156]
20,> 0.1,"Ac-[Pen][NMeR]SDTL[Pen][1Nal][dF][dK]-NH2 (disulfide 1-7; also: dimer via DIG, attachment site not given here) [SEQ ID NO: 111]"
21,> 1,B4
22,> 0.05,Ac-[Pen][NMeR]SDTL[Pen][1Nal][dH][dK]-NH2 (disulfide 1-7 (inferred); also: homodimer via DIG) [SEQ ID NO: 112]
23,< 0.01,Ac-[Pen][NMeR]SDTL[Pen][Bip]E[NMeK]-NH2 (disulfide 1-7 (inferred); also: homodimer via DIG) [SEQ ID NO: 136]
24,< 0.01,Ac-[Pen][NMeR]SDTL[Pen][Bip][β3hE][dK]-NH2 (disulfide 1-7 (inferred); also: homodimer via DIG) [SEQ ID NO: 135]
